Like-named read-outs stand apart in the source and are kept apart here.
Legend:
Assay in all cases: SPR
[1] = molecular target: T1, recombinant MPXV [change] protein (ectodomain, His-tagged) (mpox virus (MPXV), isolate …)
[2] = molecular target: T1, recombinant MPXV [change] protein …; remark: listed apart in the source
[3] = molecular target: 7D11

B1: nanobody M1R-01 (monovalent) (VHH)
VHH: QVQLVESGGGLVQAGGSLRLSCAASGFIFHNFDMGWYRQAPGKEREFVAAISDNGRSTYYADSVKGRFTISRDNAKNTVYLQMNSLKPEDTAVYYCAVAWLSIPDLAEWYDYWGQGTQVTVSS
Kd [1]: 40.4 nM | Kd [2]: 40 nM

B2: recombinant MPXV [change] protein (ectodomain, His-tagged) (domain or fragment)
chain: MGAAASIQTTVNTLSERISSKLEQEANASAQTKCDIEIGNFYIRQNHGCNITVKNMCSADADAQLDAVLSAATETYSGLTPEQKAYVPAMFTAALNIQTSVNTVVRDFENYVKQTCNSSAVVDNKLKIQNVIIDECYGAPGSPTNLEFINTGSSKGNCAIKALMQLTTKATTQIAPRQVAG
Kd [3]: 0.0198 nM

Reference: PMC11937253 (2025)
